Results taken from the supplement of paper PMC10567573.
± gives the standard deviation.

Experiment: protein stability index of a GFP-peptide fusion (GPS, HEK-293T) (PSI 1-6); higher = more stable
[1] = treatment: DMSO, c terminus: a fixed tail appended
[2] = treatment: MLN4924 1 uM, 8 h, c terminus: a fixed tail appended
[3] = treatment: DMSO, c terminus: native
[4] = treatment: MLN4924 1 uM, 8 h, c terminus: native
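Also: 24-mer peptide tiles fused after GFP, lentivirally expressed, FACS-sorted into six equal bins by GFP/DsRed ratio, decoded by Illumina sequencing, PSI is the read-weighted mean bin number.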

ELRDISSMAMEYFDEKIVPILKRK [FBXO28]
protein stability index [1]: 2.78 ± 0.36
protein stability index [2]: 3 ± 0.45

KLPLQIDCLAAWEEWLLVGTKQGH [VPS39]
protein stability index [1]: 2.43 ± 0.41
protein stability index [2]: 2.47 ± 0.14

GPMPMSMPNVMTGTMGMAPLGNTP [CLINT1]
protein stability index [1]: 4.03 ± 0.21
protein stability index [2]: 4.02 ± 0.31

ALAPKQELPSALESHEVPGTLSMG [ZNF24]
protein stability index [1]: 4.59 ± 0.25
protein stability index [2]: 4.75 ± 0.3

LDPSFPVEFVRHGDIIRLEHKETS [POMT2]
protein stability index [1]: 5.71 ± 0.17
protein stability index [2]: 5.59 ± 0.25

RAESTANAGQSDNRSLAEACSEGD [ANKRD17]
protein stability index [1]: 5.55 ± 0.24
protein stability index [2]: 5.53 ± 0.16

DLRADDLPGPAFESYESMELACPA [KLHDC2]
protein stability index [1]: 4.84 ± 0.11
protein stability index [2]: 4.72 ± 0.34

LGLETLKITDFQLHASTVKRYGLG [CPXM2]
protein stability index [1]: 2.61 ± 0.52
protein stability index [2]: 2.46 ± 0.12

TEGAFGLYRGLAPNFMKVIPAVSI [SLC25A25]
protein stability index [1]: 1.88 ± 0.51
protein stability index [2]: 2.39 ± 0.66

LNAYMKSLLSLPVWVLMDEDVRIF [NCF4]
protein stability index [1]: 3.17 ± 0.86
protein stability index [2]: 2.54 ± 0.46

GPGDGPPEIAQNFSAPDPPRPRPV [SMTNL2]
protein stability index [1]: 5.05 ± 0.19
protein stability index [2]: 5.03 ± 0.24

MSAPGSPDQAYDFLLKFLLVGDRD [RAB40A]
protein stability index [1]: 2.27 ± 0.23
protein stability index [2]: 2.42 ± 0.38

ASAETLPAGFRVSTLGTLQPPPAP [PPFIA4]
protein stability index [1]: 3.94 ± 0.35
protein stability index [2]: 4.06 ± 0.23

TMIRKLEGHHHDVVACDFSPDGAL [WSB1]
protein stability index [1]: 3.25 ± 0.28
protein stability index [2]: 3.48 ± 0.37

QEENKSLREENKALREENRMLSKE [CBY2]
protein stability index [1]: 5.56 ± 0.47
protein stability index [2]: 5.587 ± 0.023

DKNTLKDHMRKKQHRKINPKNREY [ZNF277]
protein stability index [1]: 3.3 ± 0.33
protein stability index [2]: 3.28 ± 0.35

IVALYIASGLTGFIGLEVVAQLFN [ATL3]
protein stability index [1]: 3.24 ± 0.094
protein stability index [2]: 3.31 ± 0.33

RLREAAALGDIREVQKLVESGVDV [ANKRD40]
protein stability index [1]: 4.28 ± 0.23
protein stability index [2]: 4.19 ± 0.077

GNQLQLNQHCLDTAFNFFKMAVSR [BRF1]
protein stability index [1]: 2.25 ± 0.36
protein stability index [2]: 1.96 ± 0.28

LKALTRNVNRLNESFRDLQLRLLQ [SCARA5]
protein stability index [1]: 2.37 ± 0.38
protein stability index [2]: 2.13 ± 0.46

GLSSVSPSHLLLPPDTVSRTGLEK [SPDEF]
protein stability index [1]: 4.52 ± 0.23
protein stability index [2]: 4.33 ± 0.2

VNKITFSEQCYYIFGDLCGNMANL [DVL3]
protein stability index [1]: 2.66 ± 0.38
protein stability index [2]: 2.36 ± 0.37

PENTNRQLLLQFERLVVLDYIIRN [PI4K2A]
protein stability index [1]: 2.77 ± 0.34
protein stability index [2]: 2.56 ± 0.68

GFFEEKGAIFCPPCYDVRYAPSCA [PDLIM7]
protein stability index [1]: 2.26 ± 0.22
protein stability index [2]: 2.58 ± 0.3

SYLDKVRALEEANTELEVKIRDWY [KRT17]
protein stability index [1]: 2.97 ± 0.23
protein stability index [2]: 3.07 ± 0.32

MSVLWLEHDRETRMQYAPDLMKRL [KLHL14]
protein stability index [1]: 2.35 ± 0.11
protein stability index [2]: 2.45 ± 0.15

EARFIRRSCTPNAEVRHEIQDGTI [KMT2E]
protein stability index [1]: 4.34 ± 0.67
protein stability index [2]: 4.27 ± 0.11

ESRDRPSCAPSASIPKLKLTRPVP [PWWP2B]
protein stability index [1]: 4.26 ± 0.2
protein stability index [2]: 4.16 ± 0.14

AFDYNSLSPTQRQKNFELAFTMAE [SMTNL2]
protein stability index [1]: 2.76 ± 0.3
protein stability index [2]: 3.09 ± 0.29

IVILENIAVAWIYGTKKFMQELTE [SLC6A17]
protein stability index [1]: 3.05 ± 1
protein stability index [2]: 2.92 ± 0.2

LVDKETDKRHVEQKIQFKRETASL [PDZK1]
protein stability index [1]: 4.72 ± 0.63
protein stability index [2]: 4.52 ± 0.92

NHGYAEPAAGRELPPDMTVVPGDH [KCNA3]
protein stability index [1]: 5.21 ± 0.14
protein stability index [2]: 5.24 ± 0.24

EEPAEKEDLLQQMLERRYTPYPNL [CLCN6]
protein stability index [1]: 4.4 ± 0.19
protein stability index [2]: 4.44 ± 0.37

AAKKVAPLMAKAIRDYKGRFSRR [ELOA2]
protein stability index [3]: 2.79 ± 0.33
protein stability index [4]: 3.02 ± 0.62

LEQDLQQVMVSGPNLNETSIVSGG [ARFIP2]
protein stability index [1]: 5.03 ± 0.26
protein stability index [2]: 4.99 ± 0.12

WGKRKNKPKMNYEKLSRGLRYYYD [ETS2]
protein stability index [1]: 2.52 ± 0.26
protein stability index [2]: 2.51 ± 0.43

STASTTSTTNSTAAKPAASITSKP [ZNF207]
protein stability index [1]: 5.15 ± 0.11
protein stability index [2]: 5.01 ± 0.19

IDVSKREPPPVKQELPPYNGFGLV [EFHC1]
protein stability index [1]: 3 ± 0.095
protein stability index [2]: 3.03 ± 0.27

RSKSGSEEVLCDSCIGNKQKAVKS [TRIM29]
protein stability index [1]: 4.96 ± 0.31
protein stability index [2]: 5.19 ± 0.11

PKAQSAMSPYLVPDTQALCHHLPV [SMG5]
protein stability index [1]: 3.34 ± 0.2
protein stability index [2]: 3.38 ± 0.12

DERAMELLIDFAYTSQITVEEGNV [KLHL20]
protein stability index [1]: 2.54 ± 0.21
protein stability index [2]: 3.04 ± 0.2

QFEANGYFFKRPYPFVLFYSKFHG [KMT2E]
protein stability index [2]: 2.91 ± 1.9

AALLGSNSESWGWDIGRGKLYHQS [SPSB2]
protein stability index [1]: 2.6 ± 0.63
protein stability index [2]: 3.06 ± 0.13

SHQELHRELLMNHRRGLGVDSKPE [FAM107A]
protein stability index [1]: 4.61 ± 0.22
protein stability index [2]: 4.57 ± 0.2

HFSFNVKFYPPDPAQLSEDITRYY [EPB41L3]
protein stability index [1]: 2.21 ± 0.24
protein stability index [2]: 2.12 ± 0.12

TSVLDALSTDMVHAASDPSSSSGR [SMOC2]
protein stability index [1]: 4.99 ± 0.19
protein stability index [2]: 4.96 ± 0.18

KLEYEEIALDLTPVIEELTNAGFL [FAN1]
protein stability index [1]: 2.14 ± 0.23
protein stability index [2]: 2.38 ± 0.24

SRCRNSYTEQELKPLTLEALGHLG [DLC1]
protein stability index [1]: 2.85 ± 0.32
protein stability index [2]: 2.99 ± 0.21

PLVLSYIDLSAWCYYCQAYVHHQA [HDAC6]
protein stability index [1]: 2.97 ± 0.81
protein stability index [2]: 3.27 ± 0.49

GSARYDFSHEILRDEESFFGERRI [ALKBH7]
protein stability index [1]: 3.75 ± 0.29
protein stability index [2]: 3.71 ± 0.5

SEAPNEKLFFVDTGSKEKGLTKKR [NOP53]
protein stability index [1]: 4.98 ± 0.44
protein stability index [2]: 5.37 ± 0.15

PQLRICLRVSPAEQPRLEFLMRKC [FBXO33]
protein stability index [1]: 2.15 ± 0.48
protein stability index [2]: 2.11 ± 0.22

LHAAAAGGNVECIKLLQSSGADFH [ANKRD44]
protein stability index [1]: 3.37 ± 0.091
protein stability index [2]: 3.46 ± 0.22

PAPPSDALLDLHFPSDHLGDLGDP [TFE3]
protein stability index [1]: 5 ± 0.23
protein stability index [2]: 5.1 ± 0.17

NELQHDLDVVSDALAKVSRKPSI [TPH1]
protein stability index [3]: 5.17 ± 0.39
protein stability index [4]: 5.33 ± 0.11

RRGRHEQSPTSRPRKVSSLPPRSC [C22orf15]
protein stability index [1]: 4.35 ± 0.066
protein stability index [2]: 4.61 ± 0.22

YIPSYTSWYPSAHQEAMQQPQLM [DLX1]
protein stability index [3]: 2.63 ± 0.36
protein stability index [4]: 2.44 ± 0.26

NSSVWNSHLQTNYSKTFQRSNVDF [NECAB1]
protein stability index [1]: 2.65 ± 0.18
protein stability index [2]: 2.77 ± 0.32

QYLRLPDAPEQRLRVMTTNIRSAR [ELOA2]
protein stability index [1]: 3.58 ± 0.31
protein stability index [2]: 3.9 ± 0.16

REHRVRRIHVRRHITHDERPHGQQ [KCTD13]
protein stability index [1]: 4.36 ± 0.21
protein stability index [2]: 4.45 ± 0.29

KEPVIIECGHNFCKACITRWWEDL [TRIM39]
protein stability index [1]: 2.53 ± 0.5
protein stability index [2]: 2.62 ± 0.36

RDFRPTDQEEIKTLERYMCSRFFI [TENT5C]
protein stability index [1]: 2.63 ± 0.39
protein stability index [2]: 2.71 ± 0.17

MELKVGDFGLAARLEPLEHRRRTI [PLK2]
protein stability index [1]: 3.23 ± 0.16
protein stability index [2]: 3.43 ± 0.25

RAFLQTYSHEVSLTADSRKSHLIF [PCDHGA10]
protein stability index [1]: 2.2 ± 0.34
protein stability index [2]: 2.08 ± 0.24

KSEEGHPFKAYLDVDITLSSEAFH [RTN3]
protein stability index [1]: 2.87 ± 0.45
protein stability index [2]: 2.67 ± 0.41

LLAYLIRNGSERVVTSAREHIYDL [CLINT1]
protein stability index [1]: 2.85 ± 0.33
protein stability index [2]: 2.41 ± 0.28

CCSSADICPKCWTLMTMAIRIIDR [PRIM1]
protein stability index [1]: 2.25 ± 0.18
protein stability index [2]: 2.44 ± 0.55

SLERGTALFAQVQRGALPAPDPEL [RSAD1]
protein stability index [1]: 4.18 ± 0.45
protein stability index [2]: 4.41 ± 0.38

HSRFVELSEAYRVLSREQSRRSYD [DNAJC4]
protein stability index [1]: 3.54 ± 0.23
protein stability index [2]: 3.7 ± 0.14

APPSPRDISMEIDSPENMMRHIRF [CCDC6]
protein stability index [1]: 3.51 ± 0.28
protein stability index [2]: 3.65 ± 0.26

RERKKLVLENLEDSCVLTGPDDSL [TRIB3]
protein stability index [1]: 4.91 ± 0.26
protein stability index [2]: 4.95 ± 0.36

TLICRKLGGVKKSATLRSFEGLMG [TPD52L3]
protein stability index [1]: 2.06 ± 0.16
protein stability index [2]: 2.34 ± 0.33

KATMQNLNDRLASYLDKVRALEEA [KRT17]
protein stability index [1]: 3.14 ± 0.19
protein stability index [2]: 3.43 ± 0.3

KDVAIDMMDSRTSQQLQLIDEQDS [STX5]
protein stability index [1]: 5.4 ± 0.21
protein stability index [2]: 5.33 ± 0.4

SRASAARVGQLQEALNERHSIINA [LRRC45]
protein stability index [1]: 4.01 ± 0.38
protein stability index [2]: 3.97 ± 0.19

SPEALSLGEVAYHDYHGILVDEEE [ADD1]
protein stability index [1]: 5.58 ± 0.27
protein stability index [2]: 5.54 ± 0.13

HVQDPQNTVKVQVLYPDGQAQMIH [INTS4]
protein stability index [1]: 3.74 ± 0.23
protein stability index [2]: 3.52 ± 0.29

PQSLPSTPKAAWIREEGRCSSSDD [PBXIP1]
protein stability index [1]: 5.25 ± 0.2
protein stability index [2]: 5.27 ± 0.14

QVQLGLRCCGAASYQDWQQNLYFN [TSPAN10]
protein stability index [1]: 3.12 ± 1.1
protein stability index [2]: 2.81 ± 0.91

DDEEFEYRHVMLPKDIAKLVPKTH [CKS1B]
protein stability index [1]: 4.38 ± 0.23
protein stability index [2]: 4.39 ± 0.32

DDYLHKDTGETSMLKRPVLLHLHQ [STEAP1]
protein stability index [1]: 3.31 ± 0.21
protein stability index [2]: 3.17 ± 0.16

RASALLASCSKNCTNSPAIVRFSG [FBXO34]
protein stability index [1]: 2.24 ± 0.24
protein stability index [2]: 2.59 ± 0.19

KVPVITSSKEEQKLIATSNKPAVK [KCTD10]
protein stability index [1]: 4.92 ± 0.27
protein stability index [2]: 5.29 ± 0.23

KAHKYSELIILYEKKGLHEKALQV [VPS39]
protein stability index [1]: 2.19 ± 0.43
protein stability index [2]: 2.18 ± 0.46

DCSEEYLERQLQAEFIESGQYRAN [TAF7L]
protein stability index [1]: 4.09 ± 0.35
protein stability index [2]: 4.3 ± 0.12

ETRQKKLEVAMEEEGLADEEKKLR [STK38L]
protein stability index [1]: 5.51 ± 0.18
protein stability index [2]: 5.6 ± 0.21

GPDGHLPAVATLCDLFDREIVVTI [ESRRA]
protein stability index [1]: 3.01 ± 0.7
protein stability index [2]: 2.91 ± 0.41

KAVCGKCSSKRSSIPLMGFEFEVR [WDFY2]
protein stability index [1]: 2.32 ± 0.12
protein stability index [2]: 2.71 ± 0.39

NQSVEPKKEEPEPETEAVSSSQEI [ZMYND11]
protein stability index [1]: 5.25 ± 1
protein stability index [2]: 5.29 ± 0.52
